Data from US20140271457A1 (AbbVie / Abbott, published 2014).
Where a chain is given by its changes, count along the chain named.

B1: DVD2788 (bispecific antibody, IgG1)
VH: EVTLRESGPGLVKPTQTLTLTCTLYGFSLSTSDMGVDWIRQPPGKGLEWLAHIWWDDVKRYNPALKSRLTISKDTSKNQVVLKLTSVDPVDTATYYCARTVSSGYIYYAMDYWGQGTLVTVSSGGGGSGGGGSEVQLVQSGAEVKKPGASVKVSCKASGYTFANYGIIWVRQAPGQGLEWMGWINTYTGKPTYAQKFQGRVTMTTDTSTSTAYMELSSLRSEDTAVYYCARKLFTTMDVTDNAMDYWGQGTTVTVSS
VL: DIQMTQSPSSLSASVGDRVTISCRASQDIRNYLNWYQQKPGKAPKLLIFYTSKLHSGVPSRFSGSGSGTDYTLTISSLQPEDIATYYCQQGLTPPLTFGGGTKVEIKRGGSGGGGSGDIQMTQSPSSLSASVGDRVTITCRASQDISQYLNWYQQKPGKAPKLLIYYTSRLQSGVPSRFSGSGSGTDFTLTISSLQPEDFATYFCQQGNTWPPTFGQGTKLEIKR
B2: DVD2784 (bispecific antibody, IgG1)
VH: EVQLVQSGAEVKKPGASVKVSCKASGYTFANYGIIWVRQAPGQGLEWMGWINTYTGKPTYAQKFQGRVTMTTDTSTSTAYMELSSLRSEDTAVYYCARKLFTTMDVTDNAMDYWGQGTTVTVSSASTKGPEVTLRESGPGLVKPTQTLTLTCTLYGFSLSTSDMGVDWIRQPPGKGLEWLAHIWWDDVKRYNPALKSRLTISKDTSKNQVVLKLTSVDPVDTATYYCARTVSSGYIYYAMDYWGQGTLVTVSS
VL: DIQMTQSPSSLSASVGDRVTITCRASQDISQYLNWYQQKPGKAPKLLIYYTSRLQSGVPSRFSGSGSGTDFTLTISSLQPEDFATYFCQQGNTWPPTFGQGTKLEIKRTVAAPDIQMTQSPSSLSASVGDRVTISCRASQDIRNYLNWYQQKPGKAPKLLIFYTSKLHSGVPSRFSGSGSGTDYTLTISSLQPEDIATYYCQQGLTPPLTFGGGTKVEIKR
B3: DVD3011 (bispecific antibody, IgG1)
VH: B2 VH with A30N, T102N, M104V, D105A
VL: DIQMTQSPSSLSASVGDRVTITCRASQDIENYLNWYQQKPGKAPKLLIYYTSRLQSGVPSRFSGSGSGTDFTLTISSLQPEDFATYFCQQGNTQPPTFGQGTKLEIKRTVAAPSVFIFPPDIQMTQSPSSLSASVGDRVTISCRASQDIRNYLNWYQQKPGKAPKLLIFYTSKLHSGVPSRFSGSGSGTDYTLTISSLQPEDIATYYCQQGLTPPLTFGGGTKVEIKR
B4: DVD2787 (bispecific antibody, IgG1)
VH: EVQLVQSGAEVKKPGASVKVSCKASGYTFANYGIIWVRQAPGQGLEWMGWINTYTGKPTYAQKFQGRVTMTTDTSTSTAYMELSSLRSEDTAVYYCARKLFTTMDVTDNAMDYWGQGTTVTVSSASTKGPSVFPLAPEVTLRESGPGLVKPTQTLTLTCTLYGFSLSTSDMGVDWIRQPPGKGLEWLAHIWWDDVKRYNPALKSRLTISKDTSKNQVVLKLTSVDPVDTATYYCARTVSSGYIYYAMDYWGQGTLVTVSS
VL: B2 VL
B5: DVD2786 (bispecific antibody, IgG1)
VH: B2 VH
VL: B3 VL with E30S, N31Q, Q94W
B6: DVD3012 (bispecific antibody, IgG1)
VH: B4 VH with A30N, T102N, M104V, D105A
VL: B2 VL with S30E, Q31N, W94Q
B7: DVD2783 (bispecific antibody, IgG1)
VH: EVQLVQSGAEVKKPGASVKVSCKASGYTFANYGIIWVRQAPGQGLEWMGWINTYTGKPTYAQKFQGRVTMTTDTSTSTAYMELSSLRSEDTAVYYCARKLFTTMDVTDNAMDYWGQGTTVTVSSGGGGSGGGGSEVTLRESGPGLVKPTQTLTLTCTLYGFSLSTSDMGVDWIRQPPGKGLEWLAHIWWDDVKRYNPALKSRLTISKDTSKNQVVLKLTSVDPVDTATYYCARTVSSGYIYYAMDYWGQGTLVTVSS
VL: DIQMTQSPSSLSASVGDRVTITCRASQDISQYLNWYQQKPGKAPKLLIYYTSRLQSGVPSRFSGSGSGTDFTLTISSLQPEDFATYFCQQGNTWPPTFGQGTKLEIKRGGSGGGGSGDIQMTQSPSSLSASVGDRVTISCRASQDIRNYLNWYQQKPGKAPKLLIFYTSKLHSGVPSRFSGSGSGTDYTLTISSLQPEDIATYYCQQGLTPPLTFGGGTKVEIKR
B8: DVD2789 (bispecific antibody, IgG1)
VH: EVTLRESGPGLVKPTQTLTLTCTLYGFSLSTSDMGVDWIRQPPGKGLEWLAHIWWDDVKRYNPALKSRLTISKDTSKNQVVLKLTSVDPVDTATYYCARTVSSGYIYYAMDYWGQGTLVTVSSASTKGPEVQLVQSGAEVKKPGASVKVSCKASGYTFANYGIIWVRQAPGQGLEWMGWINTYTGKPTYAQKFQGRVTMTTDTSTSTAYMELSSLRSEDTAVYYCARKLFTTMDVTDNAMDYWGQGTTVTVSS
VL: DIQMTQSPSSLSASVGDRVTISCRASQDIRNYLNWYQQKPGKAPKLLIFYTSKLHSGVPSRFSGSGSGTDYTLTISSLQPEDIATYYCQQGLTPPLTFGGGTKVEIKRTVAAPDIQMTQSPSSLSASVGDRVTITCRASQDISQYLNWYQQKPGKAPKLLIYYTSRLQSGVPSRFSGSGSGTDFTLTISSLQPEDFATYFCQQGNTWPPTFGQGTKLEIKR
B9: DVD2791 (bispecific antibody, IgG1)
VH: B8 VH
VL: DIQMTQSPSSLSASVGDRVTISCRASQDIRNYLNWYQQKPGKAPKLLIFYTSKLHSGVPSRFSGSGSGTDYTLTISSLQPEDIATYYCQQGLTPPLTFGGGTKVEIKRTVAAPSVFIFPPDIQMTQSPSSLSASVGDRVTITCRASQDISQYLNWYQQKPGKAPKLLIYYTSRLQSGVPSRFSGSGSGTDFTLTISSLQPEDFATYFCQQGNTWPPTFGQGTKLEIKR
B10: DVD2792 (bispecific antibody, IgG1)
VH: EVTLRESGPGLVKPTQTLTLTCTLYGFSLSTSDMGVDWIRQPPGKGLEWLAHIWWDDVKRYNPALKSRLTISKDTSKNQVVLKLTSVDPVDTATYYCARTVSSGYIYYAMDYWGQGTLVTVSSASTKGPSVFPLAPEVQLVQSGAEVKKPGASVKVSCKASGYTFANYGIIWVRQAPGQGLEWMGWINTYTGKPTYAQKFQGRVTMTTDTSTSTAYMELSSLRSEDTAVYYCARKLFTTMDVTDNAMDYWGQGTTVTVSS
VL: B8 VL
B11: DVD2742 (bispecific antibody, IgG1)
VH: EVTLRESGPGLVKPTQTLTLTCTLYGFSLSTSDMGVDWIRQPPGKGLEWLAHIWWDDVKRYNPALKSRLTISKDTSKNQVVLKLTSVDPVDTATYYCARTVSSGYIYYAMDYWGQGTLVTVSSASTKGPSVFPLAPEVQLVESGGGLVQPGGSLRLSCAASGFTFSNYGVEWVRQAPGKGLEWVSGIWADGSTHYADTVKSRFTISRDNSKNTLYLQMNSLRAEDTAVYYCAREWQHGPVAYWGQGTLVTVSS
VL: DIQMTQSPSSLSASVGDRVTISCRASQDIRNYLNWYQQKPGKAPKLLIFYTSKLHSGVPSRFSGSGSGTDYTLTISSLQPEDIATYYCQQGLTPPLTFGGGTKVEIKRTVAAPDIQMTQSPSSLSASVGDRVTITCKASQLVSSAVAWYQQKPGKAPKLLIYWASTLHTGVPSRFSGSGSGTDFTLTISSLQPEDFATYYCQQHYRTPFTFGQGTKLEIKR
B12: DVD2741 (bispecific antibody, IgG1)
VH: EVTLRESGPGLVKPTQTLTLTCTLYGFSLSTSDMGVDWIRQPPGKGLEWLAHIWWDDVKRYNPALKSRLTISKDTSKNQVVLKLTSVDPVDTATYYCARTVSSGYIYYAMDYWGQGTLVTVSSASTKGPEVQLVESGGGLVQPGGSLRLSCAASGFTFSNYGVEWVRQAPGKGLEWVSGIWADGSTHYADTVKSRFTISRDNSKNTLYLQMNSLRAEDTAVYYCAREWQHGPVAYWGQGTLVTVSS
VL: DIQMTQSPSSLSASVGDRVTISCRASQDIRNYLNWYQQKPGKAPKLLIFYTSKLHSGVPSRFSGSGSGTDYTLTISSLQPEDIATYYCQQGLTPPLTFGGGTKVEIKRTVAAPSVFIFPPDIQMTQSPSSLSASVGDRVTITCKASQLVSSAVAWYQQKPGKAPKLLIYWASTLHTGVPSRFSGSGSGTDFTLTISSLQPEDFATYYCQQHYRTPFTFGQGTKLEIKR

target: Recombinant Human TNF-α/TNFSF1A (human, UniProt P01375 77-233); assay: cell-based or functional assay
Sequence (P01375 77-233 limits assumed): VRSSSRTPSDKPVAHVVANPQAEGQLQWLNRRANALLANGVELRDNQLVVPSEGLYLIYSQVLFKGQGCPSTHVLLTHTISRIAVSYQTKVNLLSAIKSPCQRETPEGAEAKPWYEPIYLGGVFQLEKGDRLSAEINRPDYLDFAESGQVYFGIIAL

C-Terminal VD huTNFα Neutralization Assay IC50 [nM]	N-Terminal VD huTNFα Neutralization Assay IC50 [pM]	Binder
0.23	–	B1
–	6	B2
–	24	B3
–	5	B4
–	8	B5
–	34	B6
–	8	B7
0.186	–	B8
0.064	–	B9
0.136	–	B10
0.129	–	B11
0.202	–	B12
